The target of one data set is T1, α2-antiplasmin (UniProt P08697).
T1 sequence: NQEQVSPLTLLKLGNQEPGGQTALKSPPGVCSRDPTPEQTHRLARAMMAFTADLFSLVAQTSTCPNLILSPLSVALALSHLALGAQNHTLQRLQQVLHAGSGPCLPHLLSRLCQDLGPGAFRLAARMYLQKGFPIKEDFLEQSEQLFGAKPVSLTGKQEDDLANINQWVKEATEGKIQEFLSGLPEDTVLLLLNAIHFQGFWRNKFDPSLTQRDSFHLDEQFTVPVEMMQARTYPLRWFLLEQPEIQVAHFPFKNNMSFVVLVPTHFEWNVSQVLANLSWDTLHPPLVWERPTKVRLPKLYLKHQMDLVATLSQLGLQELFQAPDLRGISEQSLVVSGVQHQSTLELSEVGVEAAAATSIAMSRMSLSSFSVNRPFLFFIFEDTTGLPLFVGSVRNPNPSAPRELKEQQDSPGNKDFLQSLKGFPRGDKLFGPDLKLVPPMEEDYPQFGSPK

Data set [1] addresses fibrin (clot formed from purified fibrinogen with α-thrombin) (UniProt P02671).

Chain of fibrin (clot formed from purified fibrinogen with α-thrombin) (P02671 36-629, chain 1 of 3): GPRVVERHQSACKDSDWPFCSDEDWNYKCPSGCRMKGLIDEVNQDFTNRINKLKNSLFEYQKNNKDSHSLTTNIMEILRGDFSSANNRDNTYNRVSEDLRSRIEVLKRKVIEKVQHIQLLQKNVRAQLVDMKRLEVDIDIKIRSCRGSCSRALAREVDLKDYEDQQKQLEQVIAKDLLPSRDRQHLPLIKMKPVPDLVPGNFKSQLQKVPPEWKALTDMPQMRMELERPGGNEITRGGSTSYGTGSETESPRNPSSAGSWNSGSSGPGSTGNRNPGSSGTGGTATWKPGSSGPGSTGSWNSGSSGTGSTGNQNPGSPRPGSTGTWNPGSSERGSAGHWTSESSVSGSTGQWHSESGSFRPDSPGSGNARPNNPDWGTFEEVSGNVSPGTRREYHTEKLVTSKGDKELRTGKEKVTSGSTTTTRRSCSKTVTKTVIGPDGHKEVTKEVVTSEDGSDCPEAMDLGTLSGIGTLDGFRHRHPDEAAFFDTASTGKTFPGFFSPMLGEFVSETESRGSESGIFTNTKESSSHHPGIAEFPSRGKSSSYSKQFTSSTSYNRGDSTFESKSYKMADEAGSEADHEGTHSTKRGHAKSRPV
Chain of fibrin (clot formed from purified fibrinogen with α-thrombin) (chain, as listed by the source, chain 2 of 3): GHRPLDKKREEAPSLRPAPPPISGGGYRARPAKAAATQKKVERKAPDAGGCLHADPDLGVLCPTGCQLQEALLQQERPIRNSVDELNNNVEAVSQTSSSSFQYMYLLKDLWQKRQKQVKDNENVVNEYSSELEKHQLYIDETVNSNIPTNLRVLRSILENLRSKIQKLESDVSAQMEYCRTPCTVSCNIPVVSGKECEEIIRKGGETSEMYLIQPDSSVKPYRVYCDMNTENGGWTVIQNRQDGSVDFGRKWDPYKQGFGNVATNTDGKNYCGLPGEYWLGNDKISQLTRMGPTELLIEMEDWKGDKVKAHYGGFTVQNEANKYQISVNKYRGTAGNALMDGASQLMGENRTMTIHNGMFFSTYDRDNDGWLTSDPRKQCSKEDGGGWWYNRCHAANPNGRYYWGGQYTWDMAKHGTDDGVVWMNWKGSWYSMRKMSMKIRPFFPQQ
Chain of fibrin (clot formed from purified fibrinogen with α-thrombin) (chain, as listed by the source, chain 3 of 3): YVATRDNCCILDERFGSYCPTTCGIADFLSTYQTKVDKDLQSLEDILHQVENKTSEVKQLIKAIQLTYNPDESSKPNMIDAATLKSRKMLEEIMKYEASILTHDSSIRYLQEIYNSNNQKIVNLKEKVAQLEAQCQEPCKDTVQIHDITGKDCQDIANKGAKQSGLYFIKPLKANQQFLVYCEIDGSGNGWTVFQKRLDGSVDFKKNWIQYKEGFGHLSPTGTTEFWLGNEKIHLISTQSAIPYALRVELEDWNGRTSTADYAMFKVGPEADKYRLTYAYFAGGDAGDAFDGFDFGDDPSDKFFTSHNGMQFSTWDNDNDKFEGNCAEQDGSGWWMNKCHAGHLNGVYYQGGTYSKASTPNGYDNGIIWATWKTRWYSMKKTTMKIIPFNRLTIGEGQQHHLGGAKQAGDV

Regarding “human reference plasmin (commercial, human-derived plasmin)”, in the data set with α2-antiplasmin, the “plasmin activity (S-2403 hydrolysis at 405 nm) after 30 minutes pre-incubation with α2-AP, plasmin:α2-AP molar ratio of 1:1” value is “no plasmin activity was detected for human, BAP12-B2-150, or BAP01-B1-230 plasmin, indicating that the inhibition was complete”. In data set [1], the “fibrin clot lysis (decrease of turbidity at 340 nm), plasmin at 500, 250, 125 and 62 nM” value is on record as “steeper slopes of the curves with increasing plasmin concentrations”.
